Experimental findings from patent publication US20030064070A1 are described below.

This assay deals with recombinant human TNFα (rhTNF) (human) (UniProt P01375). The experiment in a line: cell-based or functional assay.
Sequence of UniProt P01375 (P01375 77-233 limits assumed): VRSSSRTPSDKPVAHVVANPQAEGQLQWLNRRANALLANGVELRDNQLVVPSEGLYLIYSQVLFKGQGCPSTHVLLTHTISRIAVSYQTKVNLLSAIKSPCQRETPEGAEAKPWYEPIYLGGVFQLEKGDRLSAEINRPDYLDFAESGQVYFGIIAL

B1: chimeric mouse/human IgG1 anti-platelet mAb (7E3) (antibody, INN chains, looked up, V domains shown)
VH: EVQLQQSGTVLARPGASVKMSCEASGYTFTNYWMHWVKQRPGQGLEWIGAIYPGNSDTSYIQKFKGKAKLTAVTSTTSVYMELSSLTNEDSAVYYCTLYDGYYVFAYWGQGTLVTVSA
VL: EIVLTQSPVTLSVTPGDSVSLSCRASRDISNNLHWFQQTSHESPRLLIKYASQSMSGIPSRFSGSGSGTDFTLSINSVETEDFGMYFCQQTNSWPYTFGGGTKLEIK
modifications: IgG1
As to B1, the IL-6 in supernatant of FS-4 fibroblasts, TNF 0.3 ng/ml, antibody 4 µg/ml was determined as 1.6 ng/mL; the IL-6 in supernatant of FS-4 fibroblasts, TNF 1.5 ng/ml, antibody 4 µg/ml was 1.96 ng/mL; the IL-6 in supernatant of FS-4 fibroblasts, TNF 7.5 ng/ml, antibody 4 µg/ml was 2.16 ng/mL.
